According to US20260151539A1 (University of Washington, published 2026):

Biological target: the molecule itself
Assay: cell-based or functional assay

Protein | Recovery Time Crossover [s], 25 C | Recovery Time Crossover [s], 37 C | Strain crossover (G'' > G'), 25 C | Strain crossover (G'' > G'), 37 C
PXP (SEQ ID NO: 81) (designed binder) MRGSHHHHHHGSGRGDSVDGSGSGSGSGSGSGAPQMLRELQETNAALQDVRELLRQQVKEITFLKNTVMESDASGSGSGSGSGSGSLDGSPAGSPTSTEEGTSESATPESGPGTSTEPSEGSAPGSPAGSPTSTEEGTSTEPSEGSAPGTSTEPSEGSAPGTSESATPESGPGSEPATSGSETPGSEPATSGSETPGSPAGSPTSTEEGTSESATPESGPGTSTEPSEGSAPLDGSGSGSGSGSGSGAPQMLRELQETNAALQDVRELLRQQVKEITFLKNTVMESDASGSGSGSGSGSGSLEGRGDSHHHHHHKLN | 4.79 s | 7.91 s | 161 % strain | 151 % strain
T40A mutant (SEQ ID NO: 82) (designed binder) MRGSHHHHHHGSGRGDSGSGSGSGSGSGSGAPQMLRELQEANAALQDVRELLRQQVKEITFLKNTVMESDASGSGSGSGSGSVDGSPAGSPTSTEEGTSESATPESGPGTSTEPSEGSAPGSPAGSPTSTEEGTSTEPSEGSAPGTSTEPSEGSAPGTSESATPESGPGSEPATSGSETPGSEPATSGSETPGSPAGSPTSTEEGTSESATPESGPGTSTEPSEGSAPLESGSGSGSGSGSGAPQMLRELQEANAALQDVRELLRQQVKEITFLKNTVMESDASGSGSGSGSGSGSGRGDSHHHHHHKLN | 4.51 s | 4.58 s | 127 % strain | 143 % strain
Q54A mutant (SEQ ID NO: 83) (designed binder) MRGSHHHHHHGSGRGDSGSGSGSGSGSGSGAPQMLRELQETNAALQDVRELLRQAVKEITFLKNTVMESDASGSGSGSGSGSVDGSPAGSPTSTEEGTSESATPESGPGTSTEPSEGSAPGSPAGSPTSTEEGTSTEPSEGSAPGTSTEPSEGSAPGTSESATPESGPGSEPATSGSETPGSEPATSGSETPGSPAGSPTSTEEGTSESATPESGPGTSTEPSEGSAPLESGSGSGSGSGSGAPQMLRELQETNAALQDVRELLRQAVKEITFLKNTVMESDASGSGSGSGSGSGSGRGDSHHHHHHKLN | 4.45 s | 4.39 s | 116 % strain | 132 % strain
T40A+Q54A mutant (SEQ ID NO: 84) (designed binder) MRGSHHHHHHGSGRGDSGSGSGSGSGSGSGAPQMLRELQEANAALQDVRELLRQAVKEITFLKNTVMESDASGSGSGSGSGSVDGSPAGSPTSTEEGTSESATPESGPGTSTEPSEGSAPGSPAGSPTSTEEGTSTEPSEGSAPGTSTEPSEGSAPGTSESATPESGPGSEPATSGSETPGSEPATSGSETPGSPAGSPTSTEEGTSESATPESGPGTSTEPSEGSAPLESGSGSGSGSGSGAPQMLRELQEANAALQDVRELLRQAVKEITFLKNTVMESDASGSGSGSGSGSGSGRGDSHHHHHHKLN | 4.39 s | 4.38 s | 119 % strain | 95 % strain
